Assay [1] has as its system wt HPV16 E6. The experiment in a line: Mammalian two-hybrid assay, wt HPV16 E6. The class given is cell-based. To be noted: HeLa; peptide-GAL4-BD + wt HPV16 E6-VP16-AD; relative to pACT control = 1.0; three experiments in duplicate. The text has this: Results were obtained from three individual experiments, each performed in duplicates. Standard deviations are indicated. Asterisks above horizontal lines indicate statistically significant differences from pACT-transfected cells, with p-values of ≤0.001 (***). […] The horizontal line indicates 1.5-fold inhibition. Individual amino acid exchanges are indicated below each column. Error bars indicate standard deviation values. (D) Statistical analysis of the differential binding behaviour of HPV16 E6 mutants 16E6R55A and 16E6Y70A. […] Asterisks above the horizontal lines indicate statistically significant reductions of luciferase activities, with p-values of ≤0.01 (**) or ≤0.001 (***). Error bars indicate standard deviation values.
HeLa (HPV18-positive) and MRI-H-186 (HPV16-positive) cervical carcinoma cells, and H1299 lung cancer cells were grown in DMEM (pH 7.2), supplemented with 10% fetal bovine serum (Gibco Life Technologies, Carlsbad, CA, USA), 2 mM L-glutamine, 100 U/ml penicillin and 100 µg/ml streptomycin (Sigma-Aldrich, Saint Lois, MO). Plasmids were transfected by calcium phosphate co-precipitation as described. […] E6 constructs used in Figure 7C contain an additional flag-tag between E6 and the VP16-AD. Mutant derivatives of HPV16, HPV18 and HPV31 E6, as specified in the text, were generated by site directed mutagenesis and verified by DNA sequencing. […]

In assay [2] the test system is HPV16 E6. The conditions noted are these: ref [17]; cited from earlier work. The text has this: In previous work, we therefore followed an alternative strategy to screen for E6 inhibitors. […] In order to identify possible structural determinants for this discrepancy, we compared the amino acid sequences of the contact region in HPV16 E6 with the corresponding domain of HPV18 E6.

The target of assay [3] is T1, E6APpep fused to the GAL4 DNA binding domain (human).
T1 construct: The functional row used hrGFP-E6APpep; also called E6APpep-GAL4-BD
T1 chain: IPESSELTLQELLGEERR
The experiment in a line: two-hybrid; mammalian two-hybrid (CheckMate) in HeLa cells; peptides fused to GAL4-BD (pBIND), E6 proteins fused to VP16-AD (pACT); luciferase reporter pG5luc, normalized for pCMV-Gal. The conditions noted are these: partners not purified. For orientation: A reporter such as luciferase makes a cellular process visible.

The target of assay [4] is T2, pep11** fused to the GAL4 DNA binding domain.
T2 construct: also called pep11**-GAL4-BD
T2 chain: KEKEEYNSNCSCIACIGLI
The experiment in a line: two-hybrid. To be noted: partners not purified.

For assay [5], the target named is T3, wildtype HPV16 E6 fused to the VP16 transcriptional activation domain, P03126.
T3 chain: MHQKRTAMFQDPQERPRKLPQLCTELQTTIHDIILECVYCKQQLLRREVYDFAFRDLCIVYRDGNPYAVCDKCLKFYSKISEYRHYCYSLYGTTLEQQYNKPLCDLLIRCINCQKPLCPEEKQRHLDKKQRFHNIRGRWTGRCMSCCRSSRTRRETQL
The experiment in a line: mammalian two-hybrid. To be noted: chain shown with the change; HeLa cells; parent: est. 19; read off a plot.

Entries after “also recorded” stand apart in the source; their conditions may differ.

For KEKEEYNSNSSSIASIGLI [pep11**m], in assay [1], the “increase of luciferase activity (intracellular E6/peptide binding)” value is “did not stimulate luciferase activities; also recorded: does not bind to HPV16 E6”. Moreover, the “binding to HPV16 E6 (in words)” value in assay [2] is on record as “defective for E6 binding”.

B1: wildtype HPV16 E6 fused to the VP16 transcriptional activation domain (natural protein)
chain: MHQKRTAMFQDPQERPRKLPQLCTELQTTIHDIILECVYCKQQLLRREVYDFAFRDLCIVYRDGNPYAVCDKCLKFYSKISEYRHYCYSLYGTTLEQQYNKPLCDLLIRCINCQKPLCPEEKQRHLDKKQRFHNIRGRWTGRCMSCCRSSRTRRETQL
notes: source: HeLa, transfected (vector pACT), mammalian two-hybrid fusion
B1: the “fold increase of luciferase activity over control-transfected cells” value is approximately 3 fold in assay [3] and approximately 19 fold in assay [4].

B2: pep11** fused to the GAL4 DNA binding domain pep11**m (peptide)
chain: KEKEEYNSNSSSIASIGLI
Regarding B2, the response in assay [5] stood at 1 RLA.

(Values after paper PMC4226571, “The E6AP Binding Pocket of the HPV16 E6 Oncoprotein Provides a Docking Site for a Small Inhibitory Peptide Unrelated to E6AP, Indicating Druggability of E6” (PLoS ONE, 2014).)
